Assays:
[1] = target: H3N2 pseudotyped lentiviral particles (H3 from A/Denmark/70/03, N2 from A/Texas/50/2012) (influenza A virus H3N2 A/Denmark/70/03; influenza A virus H3N2 A/Texas/50/2012); assay: cell-based or functional assay
[2] = target: H1N1 pseudotyped lentiviral particles (H1 and N1 from swine H1N1 A/California/04/09) (influenza A virus H1N1 A/California/04/09); assay: cell-based or functional assay

recombinant vaccinia virus complement control protein (VCP), sequence (P68638 20-263): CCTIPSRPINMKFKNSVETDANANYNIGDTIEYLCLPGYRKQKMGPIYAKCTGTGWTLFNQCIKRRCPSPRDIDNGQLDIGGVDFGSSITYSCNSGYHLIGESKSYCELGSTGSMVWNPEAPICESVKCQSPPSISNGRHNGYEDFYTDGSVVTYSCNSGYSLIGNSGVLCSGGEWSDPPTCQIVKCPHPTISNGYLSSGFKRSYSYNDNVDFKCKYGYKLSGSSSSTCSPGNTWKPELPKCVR

Substance: recombinant vaccinia virus complement control protein (VCP) (from UniProt P68638 20-263)
- luciferase reporter activity of transduced MDCK cells, 40 µg/ml protein [1]: 30 % increase
- luciferase reporter activity of transduced MDCK cells, 40 µg/ml protein [2]: 45 % reduction

— patent US20210145935A1
